This assay deals with porcine cytochrome P450 17A1 (CYP17A1), wild type (pig (Sus scrofa)) (UniProt P19100). Nature of the assay: cell-based or functional assay. The conditions noted are these: scale: ratio.
Sequence of UniProt P19100 (P19100 whole entry H407L, form in doubt): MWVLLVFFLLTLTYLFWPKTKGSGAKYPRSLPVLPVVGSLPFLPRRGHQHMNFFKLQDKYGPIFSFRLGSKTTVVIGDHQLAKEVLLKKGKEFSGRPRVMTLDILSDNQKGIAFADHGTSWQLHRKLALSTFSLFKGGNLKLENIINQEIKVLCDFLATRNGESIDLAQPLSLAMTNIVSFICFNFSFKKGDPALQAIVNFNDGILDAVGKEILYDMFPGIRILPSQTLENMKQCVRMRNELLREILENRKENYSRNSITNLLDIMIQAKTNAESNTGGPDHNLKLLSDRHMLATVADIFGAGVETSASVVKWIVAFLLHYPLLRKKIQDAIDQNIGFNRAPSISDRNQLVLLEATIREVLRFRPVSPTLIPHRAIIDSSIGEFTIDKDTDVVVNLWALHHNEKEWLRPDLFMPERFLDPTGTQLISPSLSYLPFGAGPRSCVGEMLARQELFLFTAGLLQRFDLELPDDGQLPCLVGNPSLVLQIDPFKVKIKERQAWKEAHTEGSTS

Turning to “porcine cytochrome b5 type A mutant CYB5A-N62S (from UniProt P00172 2-134)”, the Overall conversion (ratio of activity with b5/activity without b5), pregnenolone metabolism in transfected HEK-293 cells was found to be 2.16.
Regarding “porcine cytochrome b5 type A mutant CYB5A-T70S (from UniProt P00172 2-134)”, the Overall conversion (ratio of activity with b5/activity without b5), pregnenolone metabolism in transfected HEK-293 cells came out at 1.09.
“porcine cytochrome b5 type A mutant CYB5A-G57R (from UniProt P00172 2-134)”: the Overall conversion (ratio of activity with b5/activity without b5), pregnenolone metabolism in transfected HEK-293 cells turned out to be 0.865.
Take “porcine cytochrome b5 type A mutant CYB5A-L28V (from UniProt P00172 2-134)”: the Overall conversion (ratio of activity with b5/activity without b5), pregnenolone metabolism in transfected HEK-293 cells was 1.2.
To “porcine cytochrome b5 type A mutant CYB5A-QM R52M/G57R/N62S/T70S (from UniProt P00172 2-134)” belongs 1.4; to “porcine cytochrome b5 type A double mutant CYB5A-R52M+N62S (from UniProt P00172 2-134)”, 0.957.
As to “porcine cytochrome b5 type A mutant CYB5A-N21K (from UniProt P00172 2-134)”, the Overall conversion (ratio of activity with b5/activity without b5), pregnenolone metabolism in transfected HEK-293 cells amounted to 1.36.
For “porcine cytochrome b5 type A mutant CYB5A-R52M (from UniProt P00172 2-134)”, the Overall conversion (ratio of activity with b5/activity without b5), pregnenolone metabolism in transfected HEK-293 cells amounted to 0.765.
Consider “porcine cytochrome b5 type A double mutant CYB5A-N21K+L28V (from UniProt P00172 2-134)”, for which the Overall conversion (ratio of activity with b5/activity without b5), pregnenolone metabolism in transfected HEK-293 cells is 1.05.
